Experimental data from patent US11319374B2, “Inhibitors of prototypic galectin dimerization and uses thereof” (INSTITUT NATIONAL DE LA RECHERCHE SCIENTIFIQUE, priority 2015, dated 2022).
Where no end group is shown, it is not given here.

Columns and labels:
hGal-7 homodimer = target: T1, hGal-7 homodimer (Homo sapiens, UniProt P47929); test: hGal-7 homodimer disruption, low-SDS native gel electrophoresis / Western blotting; type: biochemical; conditions: recombinant hGal-7 0.5 μM, increasing peptide concentrations
T1 construct: made in house; host or cells: E. coli BL21 (DE3)
T1 sequence (P47929 2-136 limits assumed): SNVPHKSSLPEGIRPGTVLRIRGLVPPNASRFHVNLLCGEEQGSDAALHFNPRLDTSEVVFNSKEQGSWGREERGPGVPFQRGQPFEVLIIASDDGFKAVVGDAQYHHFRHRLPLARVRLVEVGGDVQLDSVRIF
Procedure: Production of recombinant hGal-7 and hGal-1. Human Gal-7 cDNA was cloned into pET-22b(+) using Ndel and HindIII restriction enzymes. Human pET-Gal-1 vector was generously donated by Dr. S. Sato (McGill University, QC, Canada). The proteins were produced in E. coli BL21 (DE3) cells at 37° C. Isopropyl p-D-1-thiogalactopyranoside (IPTG) (1 mM) was added to the bacterial culture at OD600nm=0.6-0.7 and then incubated for 4 h at 37° C. to allow protein production. Bacterial pellets were resuspended in lysis buffer (0.7 mg/mL lysozyme, 10 mM Tris pH 8, 100 mM NaCl, 1 mM EDTA, 1 mM DTT and a protease inhibitor cocktail) and then incubated for 1 h at 37° C. prior to centrifugation for 30 min at 15,000×g (4° C.). The supernatant was then filtered with 500 mL bottle top filter ([…]) (Corning®, New York, N.Y., USA) and then ran through a lactose-agarose column (Sigma®, St. Louis, Mo., USA). The protein was eluted in 1 mL fractions with 150 mM lactose solution. Purified fractions were analyzed by SDS-PAGE. The hGal-7 was then concentrated and purified using Centrifugal filter units (Amicon® Ultra-15, 10K) (EMD®, Etobicoke, ON) in 20 mM potassium phosphate at pH 7.1. All subsequent experiments with the recombinant proteins were performed in the same buffer solution unless mentioned otherwise. Brilliant Coomassie blue was purchased from BioRad® (Bio-Rad Laboratories®, Mississauga, ON, Canada). The recombinant human Bcl-2 protein fragment was purchased from Abcam® (Abcam®, Cambridge, UK, Cat #ab73696).
Western blotting. For the apoptosis tests, whole-cell extracts were homogenized and resuspended in RIPA buffer (Thermo Fisher Scientific®, Rockford, Ill., USA) containing protease inhibitors (Roche®, Laval, QC, Canada). Equal amounts of whole-cell extracts (25 μg) were separated on SDS-PAGE and transferred onto nitrocellulose membranes (Bio-Rad Laboratories®). The membranes were first blocked with 5% milk [w/v] in TBS/0.5% Tween® 20 [v/v] for 1 h at room temperature and subsequently blotted overnight in a solution of TBS containing 3% BSA [w/v] and 0.5% Tween 20 [v/v]. The following antibodies were used: a rabbit anti-Poly-(ADP-ribose) polymerase (PARP)-1 (p25) polyclonal antibody (1:5000; Epitomics®, Burlingame, Calif., USA) and a mouse anti-β-actin (1:10000; Sigma-Aldrich®, St-Louis, Mo., USA). Secondary antibodies consisted of horseradish peroxidase-conjugated donkey anti-rabbit (GE Healthcare®, Buckinghamshire, England) and sheep anti-mouse (GE Healthcare®) IgG. Detection was performed using the enhanced chemiluminescence method (GE Healthcare®). For the recombinant protein tests, each peptide was dissolved and maintained in 20 mM potassium phosphate at pH 7.1. The recombinant proteins and peptide dilutions were pre-incubated for 1 h at 4° C. prior to gel migration. The native polyacrylamide gel was made without SDS to allow molecular weight differentiation between the dimer and monomer. The following antibodies were used: a goat anti-Gal-7 antibody (1:10000; R&D Systems®, Minneapolis, Minn., USA), a mouse anti-Gal-1 antibody (1:10000; Proteintech®, Chicago, Ill., USA) and a rabbit anti-Bcl-2 antibody (1:1000; Abeam®, Cambridge, UK). Secondary antibodies consisted of donkey anti-goat (R&D Systems®) or sheep anti-mouse and sheep anti-rabbit (GE Healthcare®) IgG. Detection was performed as described above.
To determine whether these peptides could inhibit the formation of the hGal-7 homodimer, recombinant hGal-7 (0.5 μM) was incubated with increasing concentrations of hGal-7(13-25), hGal-7(85-102), hGal-7(95-108) or hGal 7(129-135) and the formation of homodimers was measured. To measure the ability of the peptides to disrupt the formation of hGal-7 dimers, a mild denaturing (low SDS) native gel electrophoresis, a commonly used approach to visualize monomer-dimer equilibrium, was used (FIG. 1A and FIG. 6).

Jurkat T cells [1] = test: hGal-7-induced apoptosis of Jurkat T cells, PARP-1 cleavage by Western blotting; type: cell-based; conditions: 4 h at 37° C., serum-free RPMI, FIG. 5A
Procedure: Western blotting. For the apoptosis tests, whole-cell extracts were homogenized and resuspended in RIPA buffer (Thermo Fisher Scientific®, Rockford, Ill., USA) containing protease inhibitors (Roche®, Laval, QC, Canada). Equal amounts of whole-cell extracts (25 μg) were separated on SDS-PAGE and transferred onto nitrocellulose membranes (Bio-Rad Laboratories®). The membranes were first blocked with 5% milk [w/v] in TBS/0.5% Tween® 20 [v/v] for 1 h at room temperature and subsequently blotted overnight in a solution of TBS containing 3% BSA [w/v] and 0.5% Tween 20 [v/v]. The following antibodies were used: a rabbit anti-Poly-(ADP-ribose) polymerase (PARP)-1 (p25) polyclonal antibody (1:5000; Epitomics®, Burlingame, Calif., USA) and a mouse anti-β-actin (1:10000; Sigma-Aldrich®, St-Louis, Mo., USA). Secondary antibodies consisted of horseradish peroxidase-conjugated donkey anti-rabbit (GE Healthcare®, Buckinghamshire, England) and sheep anti-mouse (GE Healthcare®) IgG. […]
(§1) It was thus tested whether hGal-7(129-135) could modulate the binding of hGal-7 on Jurkat T cells, a cell model that is commonly used to test the pro-apoptotic activity of galectins. For this purpose, recombinant hGal-7 was labeled with fluorescein isothiocyante (FITC) and its binding on the surface of Jurkat T cells was measured by flow cytometry in absence or presence of increasing concentrations of hGal-7(129-135). […]

Jurkat T cells [2] = test: Apoptosis/toxicity of peptide alone in Jurkat T cells, Annexin V/PI; type: cell-based
Procedure: FIG. 8A: Flow cytometry histogram showing propidium iodide (PI) (FL3) labeling of Jurkat T cells without or with 200 μM of hGal-7(129-135). FIG. 8B: Histogram showing the average percentage of Annexin-V (AV) positive Jurkat T cells in the presence of increasing concentrations of […]. FIG. 8C: Flow cytometry histogram showing PI (FL3) labeling of Jurkat T cells without or with 200 μM of PACAP28-38 FIG. 8D: Histogram showing the average percentage of AV-positive Jurkat T cells in the presence of increasing concentrations of PACAP28-38. The percentage of cell death was obtained as described above. Error bars represent standard deviation. Significance was calculated with respect to AF samples. Results are representative of three independent experiments.
Apoptosis assays with Annexin V/PI staining. Apoptosis was measured by flow cytometry using FITC-labeled Annexin V (Biolegend®, San Diego, Calif., USA) and propidium iodide. Briefly, the corresponding dilutions of recombinant hGal-7 and hGal-7(129-135) peptides were pre-incubated for 1 h at 4° C. in serum-free RPMI 1640 medium. 2.5×10^5 Jurkat cells were then harvested in the same medium and incubated with their corresponding dilutions at 37° C. for 4 h. Cells were washed once in PBS and once in binding buffer (0.01 M HEPES, 0.14 M NaCl, 2.5 mM CaCl2, pH 7.4). Cells were then incubated for 15 min with Annexin V in the dark at room temperature. A total of 400 μL of binding buffer containing 0.25 μg/mL propidium iodide was added to the cells before analysis by flow cytometry.

Jurkat T cells [3] = test: FITC-labeled hGal-7 binding on Jurkat T cells, flow cytometry; type: cell-based; conditions: FITC-labeled hGal-7 0.1 μM pre-incubated with peptide, FIG. 4
Procedure: FITC conjugation and hGal-7 binding assay. To assess hGal-7 binding onto Jurkat T cells, 5 μL of a 1.25 mg/mL fluorescein isothiocyanate (FITC)/DMSO solution was added to 300 μL of 1.7 μg/μL recombinant hGal-7 in a 0.1 M NaHCO3 pH 9.2 solution and incubated for 1 h at room temperature on a roller. FITC-labeled hGal-7 was then purified using a PD-10 Sepharose® column (GE healthcare) and eluted with PBS containing 0.01% [v/v] sodium azide. FITC-labeled hGal-7 (0.1 μM) was then pre-incubated with hGal-7(129-135) (or related peptides) in 20 mM potassium phosphate buffer pH 7.1 for 1 h at 4° C. Jurkat cells (5×10^5 cells per sample) were harvested in PBS-0.01% [v/v] sodium azide and incubated for 30 min on ice with the FITC-labeled hGal-7 with and without peptides. Cells were then washed with PBS-0.01% [v/v] sodium azide and resuspended in 400 μL of the same buffer and analyzed on a FACSCalibur® (BD Biosciences®).
as §1

Substance | disruption of hGal-7 homodimers (in words) (hGal-7 homodimer) | inhibition of hGal-7-induced apoptosis, PARP-1 cleavage (Jurkat T cells [1]) | toxicity in Jurkat T cells (Jurkat T cells [2]; PI labeling at 200 μM, Annexin V at increasing concentrations, FIGS. 8A to 8D) | induction of apoptosis by peptide alone (Jurkat T cells [2]; peptide alone, FIG. 8) | fluorescent intensity of Jurkat T cells due to FITC-labeled hGal-7 binding (Jurkat T cells [3])
H-Ile-Arg-Pro-Gly-Thr-Val-Leu-Arg-Ile-Arg-Gly-Leu-Val-NH2 (H-IRPGTVLRIRGLV-NH2; listed as Homo sapiens) [hGal-7(13-25), peptide corresponding to residues 13-25 of hGal-7] | less potent than hGal-7(129-135) |  |  |  | 
H-Asp-Gly-Phe-Lys-Ala-Val-Val-Gly-Asp-Ala-Gln-Tyr-His-His-NH2 (H-DGFKAVVGDAQYHH-NH2; listed as Homo sapiens) [hGal-7(95-108), peptide corresponding to residues 95-108 of hGal-7] | less potent than hGal-7(129-135) |  |  |  | 
H-Phe-Glu-Val-Leu-lle-Ile-Ala-Ser-Asp-Asp-Gly-Phe-Lys-Ala-Val-Val-Gly-NH2 (H-FEVLIIASDDGFKAVVG-NH2; listed as Homo sapiens) [hGal-7(85-102), peptide corresponding to residues 85-102 of hGal-7] | less potent than hGal-7(129-135) |  |  |  | 
L-A-S-V-R-I-F-NH2 (LASVRIF-NH2; listed as Homo sapiens) [[Ala^130]hGal-7(129-135), alanine substitute peptide of hGal-7(129-135)] | abrogates the ability of the peptide to disrupt hGal-7 homodimers |  |  |  | 
PACAP(28-38): control peptide selected based on similarity in amino acid length and minimal toxicity on the cell line (GKRYKQRVKNK) [reference compound] | No such effect was observed | No such effect was observed | do not induce toxicity in Jurkat T cells | did not induce apoptosis in Jurkat T cells | No such effect was observed
